# Measured values reported in article PMC12678776.
# Key:
# [1] = test system: ecHOP1-wHTH (SUMO-wHTH) (Ectocarpus); test: EMSA; settings: apparent Kd, Hill h = 1.7; 50 nM DNA; EMSA: 50 nM nucleic acid, protein 25 nM-2 uM, ~30 min at 4 C, 0.8% agarose in 0.2% TBE (so in the source) at 4 C, SYBR Gold; binding buffer, salt and pH not stated
# [2] = biological target: 2xStrepII-ecHOP1-HORMA (ecHOP1 residues 1-274) (Ectocarpus siliculosus); test: ITC; 350 µM MBP-tagged CM titrated into 25 µM ecHOP1-HORMA in the cell; 50 mM HEPES pH 7.5, 150 mM NaCl, 1 mM EDTA; 25 °C; MicroCal PEAQ-ITC; triplicate
Kd [2],Substance,Kd [1]
–,167 bp Widom DNA,0.25 µM
10.6 µM,"MBP-CM-H1-B (ecHOP1 isoform 1 closure motif B, residues 665-694) (domain or fragment)",–
7.2 µM,"MBP-CM-H1-A (ecHOP1 isoform 1 closure motif A, residues 567-600) (domain or fragment)",–
60.3 µM,His6-MBP-CM-R-A (ecRED1 closure motif A) (domain or fragment),–
